Data on 2 molecules can be found in publication PMC2708863 (The Journal of Biological Chemistry, 2009).

Like-named read-outs stand apart in the source and are kept apart here.

For orientation: Kd means the concentration at which binding is half-saturated. Low readings indicate tighter binding, high ones weaker binding.

B1: ^3FnIII, third type III domain of human fibronectin (residues 810–900) (domain or fragment)
chain: not shown

Experiment in all cases: NMR titration
In assay [1] the target is T1, ^4–5FnI, human fibronectin residues 183–275 (human, UniProt P02751 183-275).
Assay [2] has as its target ^4–5FnI (R222A) (human, UniProt P02751 183-275, R222A).
Assay [3] concerns the target T1, ^4–5FnI, human fibronectin residues …. The source holds these as a separate data set.
Assay [4] addresses B1.

T1 sequence (P02751 183-275): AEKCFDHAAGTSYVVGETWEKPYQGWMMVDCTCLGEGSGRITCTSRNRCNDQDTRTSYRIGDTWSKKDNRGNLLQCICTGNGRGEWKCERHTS
^4–5FnI (R222A), sequence (P02751 183-275 R222A): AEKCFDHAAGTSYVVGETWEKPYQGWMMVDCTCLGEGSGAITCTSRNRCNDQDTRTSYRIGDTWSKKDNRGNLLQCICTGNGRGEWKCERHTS

Take B1: the Kd amounted to 800 ± 46 µM in assay [1] and 146 ± 9 µM in assay [3]. The “fold reduction of affinity against the wild-type interaction” value in assay [2] was over 20 fold.

B2: ^2–3FnI, human fibronectin residues 93–182 (domain or fragment, UniProt P02751 93-182, looked up)
chain: AEETCFDKYTGNTYRVGDTYERPKDSMIWDCTCIGAGRGRISCTIANRCHEGGQSYKIGDTWRRPHETGGYMLECVCLGNGKGEWTCKPI
B2: binding in assay [4] was characterised by a dissociation constant (Kd) of 820 ± 70 µM.
